{"source": "patent US20150079112A1", "about": "(SAMSUNG ELECTRONICS, published 2015)", "binders": {"B1": {"name": "SAIT-ANG2-AB-m10D6 (antibody, V domains shown)", "VH": "DVQLQESGPGLVKPSQSLSLTCTVTGYSITSDYAWNWIRQFPGNKLEWMGYINYSGNTDYNPSLKSRSSITRDTSKNQFFLQLNSVTTGDTATYYCARGNFEGAMDYWGQGTSVTVSS", "VL": "SIVMTQTPKFLLVSAGDRVTITCKASQSVSNDVAWYQQKPGQSPKLLIYYASNRYPGVPDRFTGSGYGTDFTFTISTVQAEDLAVYFCQQDYSSPWTFGGGTKLEIK", "notes": "also called antibody 10D6; anti-Ang2 antibody (10D6)"}}, "assay_in_all_cases": "ELISA, coated antibody 1000 nM, 250 ng FLAG-tagged mutant Ang2, anti-FLAG-HRP, OD450", "key": {"[1]": {"target": "T1, mutant Ang2 protein, I434 substituted with alanine, FLAG-tagged at its N-terminal (human, UniProt O15123 19-496, limits assumed)", "T1 sequence": "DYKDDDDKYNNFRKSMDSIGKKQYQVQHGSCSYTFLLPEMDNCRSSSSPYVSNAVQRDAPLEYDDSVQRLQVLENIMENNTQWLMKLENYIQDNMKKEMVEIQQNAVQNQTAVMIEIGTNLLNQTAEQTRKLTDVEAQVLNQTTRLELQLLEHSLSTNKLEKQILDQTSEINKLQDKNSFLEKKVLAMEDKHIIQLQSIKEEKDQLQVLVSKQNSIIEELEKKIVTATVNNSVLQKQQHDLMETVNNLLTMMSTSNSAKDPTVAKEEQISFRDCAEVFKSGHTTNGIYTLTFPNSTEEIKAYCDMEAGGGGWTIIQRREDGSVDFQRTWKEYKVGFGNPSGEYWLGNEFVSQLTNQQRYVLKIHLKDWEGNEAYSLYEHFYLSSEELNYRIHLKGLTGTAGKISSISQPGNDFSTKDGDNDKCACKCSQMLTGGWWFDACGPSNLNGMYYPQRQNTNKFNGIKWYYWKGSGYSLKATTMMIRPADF", "protocol": "(§1) Each well of a 96-well MaxiSorp™ flat-bottom plate (Nunc) was coated with 50 ul (microliter) of 1000 nM antibody. Then, the plate was washed five times with 0.05% (v/v) Tween-20-containing PBS (PBST) and blocked with 1% (v/v) BSA-containing PBS at a room temperature for 2 hours. 250 ng of each mutant Ang2 protein obtained by substituting S417, Q418, P419, N421, I434, D448, A449, P452, Y460, N467, K468, or F469 residue of Ang2 protein tagged with a FLAG sequence ([…], Sigma) at its N-terminal with alanine was added to each well of the plate, which was then allowed to react at a room temperature for 2 hours.\n(§2) The plate was washed five times with 0.05% (v/v) Tween-20 containing PBS, reacted with an anti-FLAG antibody (SIGMA) conjugated with HRP which was diluted in 1% (v/v) BSA-containing PBS at a ratio of 1:5,000 (v/v) at a room temperature for 1 hour, and washed five times with 0.1% (v/v) Tween-20-containing PBS.\n(§3) Finally, 50 ul of TMB substrates (Cell signaling) was added to each well of the plate to induce color development at a room temperature for 3 min. and the reaction was ceased by the addition of 50 ul of Stop solution (Cell signaling) and then, OD450 values were measured on a plate reader (Molecular Devices). By comparing binding affinities with mutated Ang2 to those of unmutated Ang2, each epitope of Ang2 antibodies was identified. The thus obtained measurement results of the binding affinities (%) with mutant Ang2 against the binding affinity with the native Ang2 are shown in the following Table 8."}, "[2]": {"target": "T2, mutant Ang2 protein, F469 substituted with alanine, FLAG-tagged at its N-terminal (human, UniProt O15123 19-496, limits assumed)", "T2 sequence": "T1 sequence with A424I, F459A", "protocol": "as §1, §2, §3"}, "[3]": {"target": "T3, mutant Ang2 protein, Y460 substituted with alanine, FLAG-tagged at its N-terminal (human, UniProt O15123 19-496, limits assumed)", "T3 sequence": "T1 sequence with A424I, Y450A", "protocol": "as §1, §2, §3"}, "[4]": {"target": "T4, mutant Ang2 protein, S417 substituted with alanine, FLAG-tagged at its N-terminal (human, UniProt O15123 19-496, limits assumed)", "T4 sequence": "T1 sequence with S407A, A424I", "protocol": "as §1, §2, §3"}}, "note": "Changes are numbered by the printed parent chain."}
{"binder": "B1", "values": [{"measurement": "binding affinity (%) with mutant Ang2 against the binding affinity with the native Ang2", "setting": "[1]", "value": 109, "unit": "%"}, {"measurement": "binding affinity (%) with mutant Ang2 against the binding affinity with the native Ang2", "setting": "[2]", "value": 109, "unit": "%"}, {"measurement": "binding affinity (%) with mutant Ang2 against the binding affinity with the native Ang2", "setting": "[3]", "value": 103, "unit": "%"}, {"measurement": "binding affinity (%) with mutant Ang2 against the binding affinity with the native Ang2", "setting": "[4]", "value": 101, "unit": "%"}]}
